Here are results for 40 sequences from the nanobody polyreactivity screen of Harvey et al. (2022).

The data set in a line: yeast display, Sf9 membrane polyspecificity reagent, FACS + sequencing; frameworks hold sequencing errors. In short, it runs like this: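 Polyreactivity labels are assigned by the sorting gate from which each nanobody was recovered. The gates were low and high (top ~1%), set on anti-HA fluorescence for expression and streptavidin fluorescence for reagent binding. Before sorting, galactose-induced (36–48 hours) yeast display cells were stained for 1 hour at 4 °C with 10% biotinylated, detergent-solubilized Sf9 membrane reagent.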
Turning to “QVQLVESGGGLVQAGGSLRLSSAASGSIFRWNAMGWYRQAPGKERELVAVITWRGGRTYYADSVKGRFTISRDNAKNTVYLQMNSLKPEDTAVYYCGKGRLVTTLFGHYATFEYDSWGQGTQVTVSS”, the “polyreactivity (PSR sort gate)” value was “high polyreactivity”.
As for “QVQLVESGGGLVQAGGSLRLSSAASGSIFSSYAMGWYRQAPGKERELVAAISTGGSTYYADSVKGRFTISRDNAKNTVYLQMNSLKPEDTAVYYCAAGIMDLKLYFSSYDYWGQGTQVTVSS”, the entry is “low polyreactivity”; as for “QVQLVESGGGLVQAGGSLRLSSAASGSIFYGNAMGWYRQAPGKESELVAAISARGGSTNYADSVKGRFTISRDNAKITVYLQMNSLIPEDTAVYYCAAKVRVWYYRMDSWGQGTQVTVSS”, “low polyreactivity”; as for “QVQLVESGGGLVQAGGSLRLSSAASGSIFYVYAMGWYRQAPGKERELVAAISRRGARTYYADSVKGRFTISRDNEKNTVYLQMNILKPEDTAVYYCYADQYHTVGYSAEYEYWGQGTQVTVSS”, “low polyreactivity”.
On to “QVQLVESGGGLVQAGGSLRLSSAASGSILTPNAMGWYRQAPGKERELVAAINYSGGSTYYADSVKGRFTISRDTAKNTVYLQMNSLKPEDTAVYYCAVPYWYGRGHCYWGQGTQVTVSS”, for which the “polyreactivity (PSR sort gate)” value is reported as “low polyreactivity”.
The result for “QVQLVESGGGLVQAGGSLRLSSAASGSIYGYTMGWYRQAPGKERELVAAINRRADRTYYADSVKGRFTISRDNAKNTVYLEMNILKPEDTAVYYCNKGGWYTLGYWGQGTQVTVSS” reads “high polyreactivity”.
The result for “QVQLVESGGGLVQAGGSLRLSSAASGSTFDDYVMGWYRQAPGKERELVAGINSRGTSTDYADSVKGRFTISRDNAKNTVYLQMNSLKPEDTAVYYCNAESPSGRLFDDAYENDYWGQGTQVTVSS” reads “low polyreactivity”.
As for “QVQLVESGGGLVQAGGSLRLSSAASGSTFEYNAMGWYRQAPGKERELVASSTNYADSVKGRFTISRDNAKNTVYLQMNSLKPEDTAVYYCAREQGVNRNHDYWGQGTQVTVSS”, the entry is “low polyreactivity”.
Regarding “QVQLVESGGGLVQAGGSLRLSSAASGSTFLLNAMGWYRQAPGKERELVAAITWSGSRTYYADSVKGRFTISRDNPKYNVYLQMNSLKPEDTAVYDCAAEYRDTRRYSYDYWGQGTQVTVSW”, the “polyreactivity (PSR sort gate)” value is “high polyreactivity”.
The result for “QVQLVESGGGLVQAGGSLRLSSAASGSTFQFYAMGWYRQAPGKERELVADITSGDDTNYADSVKGRFTISRDNAKNTVYLQMNSLKPEDTAVYYCAVEYILFYTRVRSYWFDYWGQGTQVTVSS” reads “low polyreactivity”; that for “QVQLVESGGGLVQAGGSLRLSSAASGSTFSLNAMGWYRQAPGKERELVASISSGDSTNYADSVKGRFTISLDNAKNTVYLQMNSLKPEDTAVYYCAADGWVLSLARGYYTYDYWGLGTQVTVSS”, “low polyreactivity”.
The result for “QVQLVESGGGLVQAGGSLRLSSAASGSTFVNYVMGWYRQAPGKERELVAAISRRGTSTSYADSVKGRFTISRDNAKNTVYLQMNSLKPVDTAVYYCITLRQLGRPFYYWGQGTQVTVSS” reads “high polyreactivity”.
As for “QVQLVESGGGLVQAGGSLRLSSAASGSTFYLNTMGWYRQAPGKEREFVAAISARGGSTYYADSVKGRFTISRDNAKNTVYLQMNSLKPEDTAVYYCAAKFVRFYWNYDYWGQGTQVTVSS”, the “polyreactivity (PSR sort gate)” value is recorded as “high polyreactivity”.
Consider “QVQLVESGGGLVQAGGSLRLSSAASGSTFYSYAMRWYRQAPGKERELVAAINWDGVSTYYADSVKGRFSISRDNAMNTVYLQMNSLKPEDTAVYYCAADLFSGYRISGTFYYWGQGTQVTVSS”, for which the “polyreactivity (PSR sort gate)” value is reported as “low polyreactivity”.
“QVQLVESGGGLVQAGGSLRLSSAASGSTFYWYAMGWYRQAPGKERELVASITRSGVRTYYADSVKGRFTISRDNAKNTVYLQMNSLKPEDTAVYYCAAERYYFPRSYRYGYWGQGTQVTVSS”: the “polyreactivity (PSR sort gate)” value is “low polyreactivity”.
As for “QVQLVESGGGLVQAGGSLRLSSAASGSTLYRYAMGWYRQAPGKERELVAAISRSGGNTYYADSVKGRFTISRDNAKNTVYLQMNSLKPEDTAVYYCNADSFIRYDYWGQGTQVTVSS”, the entry is “high polyreactivity”; as for “QVQLVESGGGLVQAGGSLRLSSAASGYTFTINTMGWYRQAPGKERELVAAITWRGGSTYYADSVKGRFSISRDNAKNTVYLQMNSLKPEDTAVYYCNKDYYITTTTFDYWGQGTQVTVSS”, “low polyreactivity”.
The result for “QVQLVESGGGLVQAGGSLRLSSAASRITFDQNAMGWYRQAPGKERELVAAITRGSSTNYADSVKGRFTISRDNAKNTVYLQMNSLKPEDTAVYYCNADGYARFRTYYSRDTREYDYWGQGTQVTVSS” reads “low polyreactivity”.
The result for “QVQLVESGGGLVQAGGSLRLSSAASRSIFDYYAMGWYRQAPGKEREFVAAISESSDSTYYADSVKGRFTISRDNAKNTVYLQMNSLKPEDTAVYYCAGQRGGPFPRVVDLYDYWGQGTQVTVSS” reads “low polyreactivity”; that for “QVQLVESGGGLVQAGGSLRLSSAAYGRIFAANANGWYRQAPGKERELVAAISSGGSTNYADSVKGRFTISRDNAKNTVYLPMISLKPEDTAVYYCAADASWYAYCYYYWGQGTQVTVSS”, “low polyreactivity”.
On to “QVQLVESGGGLVQAGGSLRLSSAAYGSIFDSNAMGWYRQAPGKERELVAAIRYSGGRTYYADSVKGRFTISRDNAKNTVYLQMNILKPEDTAVYYCAARSKVYKVGYNYWGQGTQVTVSS”, for which the “polyreactivity (PSR sort gate)” value is “high polyreactivity”.
The result for “QVQLVESGGGLVQAGGSLRLSSADSGRIFYRYMVWYRHAPGKERELVAAISGRATRTYYADSVKGRFTISRDNAKKTVYLQMNSLKPEDTAVYYCAKRSYHGGDYWGQGTQVTVSS” reads “high polyreactivity”.
As for “QVQLVESGGGLVQAGGSLRLSSAGSGRIFQPYAMGWYRQAPGKERELVAAITRRAGSTYYADSVKGRFTISRDNAKNTVYLQMNSLKPEDTAVYYWAARGLYWAYEMEDWGQGTQVTVSS”, the entry is “low polyreactivity”; as for “QVQLVESGGGLVQAGGSLRLSSAPSGRTFGVYAMGWYRQAPGKERELVAAISATGGSTYYADSVKGRFTISRDNAKNTVYLQMNSLKPEDTAVYYCARGGTTLYWGQGTQVTVSS”, “high polyreactivity”; as for “QVQLVESGGGLVQAGGSLRLSSASSGFTFNKYAMGRYRQAPGKERELVAAISSSGGSTRYADSVKGRFTISRDNAKNTVYLQMNSLNPEDTAVFYCAVYVTRDSGWLLYDYWGQGTQVTVSS”, “high polyreactivity”.
As for “QVQLVESGGGLVQAGGSLRLSSASSGRTFYKYAMGWYRQAPGKERELVAAISRRGGSTYYADSVKGRFTISRDNAKNTVYLQMNSLKPEDSAVYYCAAGGSVAFYYWGQGTQVTVSS”, the entry is “high polyreactivity”.
“QVQLVESGGGLVQAGGSLRLSSASSGSTSWIYAMGWYRPEPGKERELVAAISGRDGSTNYADSVKGRFTISRDNAKNTVYLQMIRVKPEDTAVYDCNATGRSFKRYGGDYWGQGTQVTVSS”: the “polyreactivity (PSR sort gate)” value was “high polyreactivity”.
With “QVQLVESGGGLVQAGGSLRLSSASTGLIFRWYEMGRYRQPPGKETELVAAISRRGGTTNYADSVKGRFTISRDIAKITVYLQMNSLKPEDTAVYYCAADYQSVGVAEYEYWGQGTQVTVSS”, the “polyreactivity (PSR sort gate)” value was “high polyreactivity”.
As for “QVQLVESGGGLVQAGGSLRLSSGAYGITFWTYAMGWYRQAHGKERELVAAISNGGSTSYADSVKGRFTISRDNAKNTVYLQINILKPEDTAVYYCASDWATHRPWYWCVYYWGQGTQVTVSS”, the entry is “low polyreactivity”; as for “QVQLVESGGGLVQAGGSLRLSSPASGRTIRSYAMGSYRQAPGKERELVAAINSSGGSTYYADSVKARFTISRDNAKNTVYLQMNSLKPEDTAVYYCNTDYSSTSPWRAANYWGQGTQVTVSS”, “high polyreactivity”.
As for “QVQLVESGGGLVQAGGSLRLSSPASGSIYRKYGMGSYRQAPGKERELVATITSSGGSTYYADSVKGRFSISRDNAKKTVYLQMNSLKPEDTAVYYCAADYYYLPGSYQVRAMYYWGQGTQVTVSS”, the entry is “high polyreactivity”.
As for “QVQLVESGGGLVQAGGSLRLSWAASGFIFGFYAMGWYRQAPGKERELVADITSSGGSTYYADSVKGRFTISRDNAKNTVYLQMNSLKQEDTAVYYCAADGWLHNFYPGTGLDYWGQGTQVTVSS”, the entry is “low polyreactivity”; as for “QVQLVESGGGLVQAGGSLRLSWAASGFTFTPYAMGWYRPAPGKEREFVAAISQRGTSTFYADSVKGRFTISRDNAKHTVYLQMNSLKPEDTAVYYCAKPYRQYTSAYYNTYNYWGQGTEVTVSS”, “high polyreactivity”; as for “QVQLVESGGGLVQAGGSLRLSWAASGLIFSSNAMGWYRQAPGKERDLVAAITRSGGSTYYADSVKGRFTISRDNAKNTVYLQMNSLKPEDTAVYYCAARYSQRGITFYYWGQGTQVTVSS”, “high polyreactivity”.
In the case of “QVQLVESGGGLVQAGGSLRLSWAASGRIFVLNAMGSYRQAPGKERELVAAISTGASTNYADSVKGRFTISRDNAKNTVYLKMNSLTPEATAVYYCAAAPGSSGARTSYILAYDYWGLGTQVTVSS”, the “polyreactivity (PSR sort gate)” value is on record as “low polyreactivity”.
For “QVQLVESGGGLVQAGGSLRLSWAASGSIFFYYTIGWYRQAPGKERELVAAISVGGSTYYADSVKGRFTISRDNAKNTVYLQMNSLKPEDTAVYYSNAVPAKGFVTVVRYYYWGQGTQVTVSS”, the “polyreactivity (PSR sort gate)” value is “low polyreactivity”.
As for “QVQLVESGGGLVQAGGSLRLSWAASGSTFRLYAMGWYRQAPGKERELVAAITWSGGSTYYADSVKGRFTISRDNAKNTVYLQMNSLKPEDTAVYYCAAHRIGYYLRVSYRGKYDHWGQGTQVTVSS”, the entry is “low polyreactivity”; as for “QVQLVESGGGLVQAGGSLRLSWAASGSTLSLYAMGWYRQAPGKERELVAAITSSGGTYYADSVKGRFTISRDNAKNTVYLQMNSLKPEVTAVYYCNAYAKDARSYGYHRVNYWGQGTQVTVSS”, “high polyreactivity”; as for “QVQLVESGGGLVQAGGSLRLTCAACGRIFNKYAMVWYIQAPGKERELVAAINGGGSTNYADSVKGRFTISRDNAKNTDYLQMNSLKAEDTAVYYCSTTPDGEGGYWGQGTQVTVSS”, “low polyreactivity”.
For “QVQLVESGGGLVQAGGSLRLTCAACGRTFYWYSMGWYRKAPGKERELVATITRTGTRTYYADSVKGRFTISRDNAKNTVYLQMNSLKPEDTAVYYCAAGVIRYGGKEEYYYWGLGTQVTVSS”, the “polyreactivity (PSR sort gate)” value is “high polyreactivity”.
